# Results: the RNAGym collection of RNA variant scans (doi:10.7554/elife.80360)
# B1: Hairpin Ribozyme (parent)
# chain: GUCCUCUUUCACGUGCGCGUGAAAGAGAGAAGUGAACCAGAGAAACACACGUUGUGGUAUAUUACCUGGUA
# Variants of: B1
# Assay: self-cleavage, relative activity (ratio to wild type); higher = more cleavage; co-transcriptional
row,Variant,self-cleavage
1,A35G G42C,0.231
2,A31G A49G,0.241
3,A22C C50A,0.22
4,G56A A59G,0.167
5,A30U A36G,0.248
6,A44G C48U,0.0899
7,G17C U55C,0.216
8,C4U G42C,0.253
9,G15C U20G,0.828
10,G19C C50G,0.196
11,G21U A47C,0.282
12,C46U G54C,0.149
13,C18A U58G,0.652
14,C16G C48G,0.19
15,A39C U70C,0.247
16,G54U G57U,0.282
17,U8A C18A,0.872
18,U5A A23G,0.377
19,G29A U62A,0.123
20,A59G A61C,0.39
21,U14C U52G,0.512

row,Variant,self-cleavage
1,C12A G27C,0.0872
2,A43C U62G,0.257
3,U20G A43G,0.206
4,A43C U67G,0.13
5,U20A U53G,0.673
6,A49C A59G,0.167
7,G13C G32U,0.027
8,U53C C66G,0.328
9,U33A A41U,0.111
10,C48A C66G,0.245
11,A24C A36C,0.631
12,G19U C50U,0.33
13,U20G G57C,0.123
14,G19U A61G,0.231
15,A41C U70C,1.04
16,C50U U53C,0.261
17,C50G U67G,0.101
18,A49G A61G,0.211
19,U9C C50U,0.314
20,G13C U60C,0.912
21,U9G U14G,0.597

row,Variant,self-cleavage
1,U33A G69U,0.134
2,U7A G27U,0.251
3,A28C A71C,1.05
4,A23U U63G,0.199
5,G21U U62C,0.272
6,G51U U60C,1.49
7,G15A U62C,0.214
8,C4A U53G,0.27
9,A11U U60C,1.18
10,C46A A49U,0.149
11,G15A G54C,0.364
12,C4U U58G,0.218
13,A36U U53G,0.224
14,U5G A44C,0.147
15,U5A G34A,0.435
16,C6A G54U,0.379
17,C48U A64C,0.255
18,A11U C12U,0.694
19,G54A G57C,0.149
20,U9G G29U,0.1
21,U53C U63G,0.144

row,Variant,self-cleavage
1,G29C A61C,0.206
2,A41G U55A,0.228
3,C10U C37U,0.39
4,G17U U62C,0.138
5,A61G U62A,0.198
6,A49U G54U,0.36
7,U9C A11U,0.411
8,A28U A31G,0.325
9,G40U A49U,0.0847
10,A59U U60G,0.172
11,A35C A39G,0.591
12,U20A G51A,0.765
13,G19U A47G,0.24
14,U9G C18A,0.707
15,G13U U60G,0.404
16,G17U C65G,0.269
17,G40C A49U,0.169
18,G40C A49C,0.0764
19,C37G G68U,0.189
20,G19C G21A,0.657
